The record followed here is patent US20180327506A1 (AbbVie / Abbott, published 2018).

Assay [1] concerns the target T1, full-length mature human EMR2 (residues Q24-N823) with N-terminal aspartic acid/lysine epitope tag, … (human, UniProt Q9UHX3 24-823).
T1 sequence: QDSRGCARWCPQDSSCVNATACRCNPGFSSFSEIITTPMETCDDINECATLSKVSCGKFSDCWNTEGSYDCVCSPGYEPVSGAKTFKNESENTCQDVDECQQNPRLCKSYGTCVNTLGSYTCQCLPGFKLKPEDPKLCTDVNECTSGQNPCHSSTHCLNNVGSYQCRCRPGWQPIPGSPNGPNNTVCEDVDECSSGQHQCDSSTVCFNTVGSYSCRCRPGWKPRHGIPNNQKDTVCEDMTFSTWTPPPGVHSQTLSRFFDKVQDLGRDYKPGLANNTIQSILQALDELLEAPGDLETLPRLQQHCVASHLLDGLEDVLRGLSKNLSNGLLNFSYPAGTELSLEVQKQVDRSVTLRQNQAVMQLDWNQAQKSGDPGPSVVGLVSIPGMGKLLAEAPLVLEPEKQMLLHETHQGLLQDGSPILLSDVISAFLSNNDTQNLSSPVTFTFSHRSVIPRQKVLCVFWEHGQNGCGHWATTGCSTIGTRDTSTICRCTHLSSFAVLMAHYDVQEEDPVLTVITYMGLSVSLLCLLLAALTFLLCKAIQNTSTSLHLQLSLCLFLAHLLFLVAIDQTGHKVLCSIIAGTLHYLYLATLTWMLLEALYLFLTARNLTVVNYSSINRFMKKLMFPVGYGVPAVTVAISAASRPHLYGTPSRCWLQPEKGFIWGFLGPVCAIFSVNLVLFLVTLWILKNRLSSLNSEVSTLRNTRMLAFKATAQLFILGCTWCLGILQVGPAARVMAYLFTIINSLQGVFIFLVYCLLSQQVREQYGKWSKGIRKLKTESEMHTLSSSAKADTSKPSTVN
As to the kind of experiment: cell-based or functional assay.

The target of assay [2] is T2, full-length mature cynomolgus EMR2 (residues Q24-N816) with N-terminal aspartic acid/lysine epitope tag, … (cynomolgus monkey (Macaca fascicularis), UniProt A0A2K5WL23 21-816).
T2 sequence: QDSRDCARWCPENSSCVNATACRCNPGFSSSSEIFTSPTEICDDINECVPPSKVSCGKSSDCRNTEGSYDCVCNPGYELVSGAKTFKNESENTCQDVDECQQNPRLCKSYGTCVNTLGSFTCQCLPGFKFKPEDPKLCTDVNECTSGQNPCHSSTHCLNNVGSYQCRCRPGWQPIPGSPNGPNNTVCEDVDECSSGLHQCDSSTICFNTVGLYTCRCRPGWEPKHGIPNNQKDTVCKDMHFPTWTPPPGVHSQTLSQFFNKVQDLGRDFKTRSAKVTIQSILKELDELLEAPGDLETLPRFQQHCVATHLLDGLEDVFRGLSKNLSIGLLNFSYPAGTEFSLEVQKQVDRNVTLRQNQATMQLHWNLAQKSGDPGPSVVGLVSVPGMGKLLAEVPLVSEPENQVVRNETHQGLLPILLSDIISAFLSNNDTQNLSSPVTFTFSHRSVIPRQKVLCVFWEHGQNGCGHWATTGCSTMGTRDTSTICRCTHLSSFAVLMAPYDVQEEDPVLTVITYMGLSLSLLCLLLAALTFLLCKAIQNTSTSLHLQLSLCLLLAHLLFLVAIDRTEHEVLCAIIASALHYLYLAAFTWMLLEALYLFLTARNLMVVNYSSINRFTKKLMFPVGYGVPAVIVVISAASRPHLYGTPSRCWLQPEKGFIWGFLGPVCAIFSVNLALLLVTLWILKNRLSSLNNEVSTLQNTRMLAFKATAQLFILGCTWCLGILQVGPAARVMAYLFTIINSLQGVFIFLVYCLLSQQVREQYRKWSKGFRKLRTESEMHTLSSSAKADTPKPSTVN
As to the kind of experiment: cell-based or functional assay.

Assay [3] has as its target T3, full-length mature human CD97 (residues Q21-I845) with N-terminal aspartic acid/lysine epitope tag, … (human, UniProt P48960 21-835).
T3 sequence (looked up): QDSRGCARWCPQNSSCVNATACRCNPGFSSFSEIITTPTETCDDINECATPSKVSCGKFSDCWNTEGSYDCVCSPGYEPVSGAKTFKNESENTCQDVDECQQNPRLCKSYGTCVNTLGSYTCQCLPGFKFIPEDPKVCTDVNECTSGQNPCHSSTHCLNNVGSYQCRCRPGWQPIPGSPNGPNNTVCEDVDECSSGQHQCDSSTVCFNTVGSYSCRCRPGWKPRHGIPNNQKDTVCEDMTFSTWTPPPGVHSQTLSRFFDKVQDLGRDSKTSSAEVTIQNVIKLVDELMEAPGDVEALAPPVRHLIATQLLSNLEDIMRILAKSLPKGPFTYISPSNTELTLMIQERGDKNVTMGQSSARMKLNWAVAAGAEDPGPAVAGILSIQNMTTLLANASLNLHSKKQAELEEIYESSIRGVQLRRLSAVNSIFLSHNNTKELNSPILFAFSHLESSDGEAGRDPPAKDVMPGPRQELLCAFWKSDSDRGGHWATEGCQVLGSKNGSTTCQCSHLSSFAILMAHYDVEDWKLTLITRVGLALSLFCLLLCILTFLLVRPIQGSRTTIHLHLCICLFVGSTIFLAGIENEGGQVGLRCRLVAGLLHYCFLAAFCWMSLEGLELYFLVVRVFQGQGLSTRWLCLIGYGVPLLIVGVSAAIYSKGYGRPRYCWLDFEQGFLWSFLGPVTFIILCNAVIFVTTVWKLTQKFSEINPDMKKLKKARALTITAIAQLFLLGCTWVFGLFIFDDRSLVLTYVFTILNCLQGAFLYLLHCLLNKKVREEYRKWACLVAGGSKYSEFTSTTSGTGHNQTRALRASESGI
Nature of the assay: cell-based or functional assay.

The target in assay [4] is T1, full-length mature human EMR2 (residues …). As to the kind of experiment: flow cytometry on transduced HEK293T; 293 naive MFI 97.2. A general note: In flow cytometry, cells or beads pass a laser one at a time.
Protocol: (§1) The exemplary antibodies were also tested using flow cytometry to determine their ability to associate with hEMR2, cEMR2 and CD97 expressed on the surface of cells.
Assay [5] has as its target T2, full-length mature cynomolgus EMR2 …. Described as above.
Protocol: as §1
Assay [6] concerns the target T3, full-length mature human CD97 (residues …). The assay is described as above.
Protocol: as §1
Assay [7] concerns the target T4, human EMR2 as naturally expressed on primary and PDX tumor cells, blood and bone marrow cells and hematologic … (human, UniProt Q9UHX3 24-823).
T4 construct: Endogenous protein; also called hEMR2; CD312
T4 sequence: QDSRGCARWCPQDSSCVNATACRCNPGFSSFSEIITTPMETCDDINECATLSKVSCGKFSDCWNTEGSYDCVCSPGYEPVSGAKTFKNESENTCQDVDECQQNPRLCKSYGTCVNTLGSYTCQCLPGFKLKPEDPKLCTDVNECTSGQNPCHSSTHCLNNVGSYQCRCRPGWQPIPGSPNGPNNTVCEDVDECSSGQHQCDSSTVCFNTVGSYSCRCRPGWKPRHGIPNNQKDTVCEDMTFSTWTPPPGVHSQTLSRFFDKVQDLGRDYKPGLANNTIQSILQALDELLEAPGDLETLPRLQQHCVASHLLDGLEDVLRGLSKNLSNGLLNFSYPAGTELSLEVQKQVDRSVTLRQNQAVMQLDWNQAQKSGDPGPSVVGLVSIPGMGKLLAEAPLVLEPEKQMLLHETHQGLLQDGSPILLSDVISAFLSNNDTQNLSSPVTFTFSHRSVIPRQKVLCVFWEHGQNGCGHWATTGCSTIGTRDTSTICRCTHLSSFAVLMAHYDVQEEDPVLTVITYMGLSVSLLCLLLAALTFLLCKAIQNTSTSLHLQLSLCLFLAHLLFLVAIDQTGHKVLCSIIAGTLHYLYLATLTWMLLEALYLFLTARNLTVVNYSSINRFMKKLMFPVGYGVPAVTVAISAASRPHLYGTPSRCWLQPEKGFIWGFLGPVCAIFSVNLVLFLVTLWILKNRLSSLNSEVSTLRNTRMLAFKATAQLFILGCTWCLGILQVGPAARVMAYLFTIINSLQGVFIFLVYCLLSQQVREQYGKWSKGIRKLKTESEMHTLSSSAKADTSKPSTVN
Nature of the assay: flow cytometry on AML40p0 cells, against isotype control.
Protocol: AML PDX samples were harvested by extracting both femora and tibiae from a mouse. After removing any attached muscle tissue the bones were combined and grinded up using a mortar and pistil to release the bone marrow from the rest of the bone. Cell suspensions were harvested and red blood cells lysed by exposure to a hypotonic ammonium-chloride-potassium solution (ACK). After 5 min incubation on ice the red blood cell lysis was stopped by adding 2% fetal bovine serum in PBS buffer (FSM), cells harvested by centrifugation and any tissue debris filtered out using a nylon mesh. Primary human AML samples were obtained cryopreserved as Ficol isolated mononuclear cells, thawed, washed once in FSM and used for analysis. Single cell suspensions were incubated with 4′,6-diamidino-2-phenylindole (DAPI) to detect dead cells, anti-human CD45 and CD33 to identify human leukemic cells. The resulting single cell suspensions comprised a bulk sample of tumor and non-tumor cells including both NTG cells and CSCs. In order to partition bulk AML leukemic populations into NTG and CSC subpopulations, the PDX tumor cells were further incubated with anti-human CD34 and CD38 or candidate AML CSC markers.

Assay [8] addresses T4, human EMR2 as naturally expressed on …. Nature of the assay: flow cytometry on AML20p4 PDX cells, against isotype control.
Protocol: (§2) AML PDX samples were harvested by extracting both femora and tibiae from a mouse. After removing any attached muscle tissue the bones were combined and grinded up using a mortar and pistil to release the bone marrow from the rest of the bone. Cell suspensions were harvested and red blood cells lysed by exposure to a hypotonic ammonium-chloride-potassium solution (ACK). After 5 min incubation on ice the red blood cell lysis was stopped by adding 2% fetal bovine serum in PBS buffer (FSM), cells harvested by centrifugation and any tissue debris filtered out using a nylon mesh. Primary human AML samples were obtained cryopreserved as Ficol isolated mononuclear cells, thawed, washed once in FSM and used for analysis. Single cell suspensions were incubated with 4′,6-diamidino-2-phenylindole (DAPI) to detect dead cells, anti-human CD45 and CD33 to identify human leukemic cells. […] In order to partition bulk AML leukemic populations into NTG and CSC subpopulations, the PDX tumor cells were further incubated with anti-human CD34 and CD38 or candidate AML CSC markers.
Assay [9] addresses T1, full-length mature human EMR2 (residues …). Nature of the assay: flow cytometry on transduced HEK293T; 293 naive MFI 143.
Protocol: as §1
For assay [10], the target named is T2, full-length mature cynomolgus EMR2 …. Described as above.
Protocol: as §1
For assay [11], the target named is T3, full-length mature human CD97 (residues …). The description is as above.
Protocol: as §1
Assay [12] addresses T4, human EMR2 as naturally expressed on …. Nature of the assay: flow cytometry on AML33p0 cells, against isotype control.
Protocol: as §2
Assay [13] shares this target. Nature of the assay: flow cytometry on AML37p0 cells, against isotype control.
Protocol: as §2
The target is the same in assay [14]. As to the kind of experiment: flow cytometry on AML16-p4 PDX cells, against isotype control.
Protocol: as §2
Assay [15] has the same target. Nature of the assay: flow cytometry on AML23p2 PDX cells, against isotype control.
Protocol: as §2
The target of assay [16] is T1, full-length mature human EMR2 (residues …). Nature of the assay: cell-based or functional assay. This is another data set of the same source.
Assay [17] addresses T2, full-length mature cynomolgus EMR2 …. As to the kind of experiment: cell-based or functional assay. The source holds these as a separate data set.
The target of assay [18] is T3, full-length mature human CD97 (residues …). Nature of the assay: cell-based or functional assay. The source holds these as a separate data set.
Assay [19] has as its target T1, full-length mature human EMR2 (residues …). As to the kind of experiment: flow cytometry on transduced HEK293T; 293 naive MFI 95.6.
Protocol: as §1
In assay [20] the target is T2, full-length mature cynomolgus EMR2 …. The assay is described as above.
Protocol: as §1
The target in assay [21] is T3, full-length mature human CD97 (residues …). Described as above.
Protocol: as §1

Where two headings read alike, the source gives them in different places.

B1: SC93.221 (antibody, IgG1, V domains shown)
VH: QIQLVQSGSELKKPGETVKISCKASGYTFTDYSINWVKQAPGKGFKWMGWINTYTGVPTYADDFKGRFAFSLETSATTAYLQINNLKNEDTATYFCARARYDGYYGRFDYWGQGTTLTVSS
VL: DFLMTQTPLSLPVSLGDQASISCRSSQSIVHSNGDTYLEWFLQKPGQSPKLLIYKVSNRFSGVPDRFSGSGSGTDFTLKISRVEAEDLGVYYCFQGSHVPFTFGSGTKLEIK
notes: murine, IgG1
Turning to B1, the “% live, FAB-saporin killing assay” value in [1] worked out at 101%; in [2], 92.2%; in assay [3], 99.1%. In addition, the entries for the “FC MFI” value in assay [4], in assay [5] and in [6] were 5080, 72.5 and 74.2, respectively.

B2: SC93.267 (antibody, V domains shown)
VH: EVQLQQSGPELVKPGASVRMSCKASGYTFTDYNMYWVKQSLGKSLEWIGYIYPNTGGATYNQKFKGKATLTVNKSSSTAFMELRSLTSEDSAVYYCGRGGLGPFAYWGQGTLVTVSA
VL: DIQMTQSPSSLSASLGGKVTITCRASQDINKFISWYQHRPGKGPRLLIHYASTLQPGIPSRFSGSGSGRDYSFSISNLEPEDIATYYCLQYDNLWTFGGGTKLEIR
notes: Murine hybridoma antibody with a kappa light chain; also called anti-hEMR2 antibody SC93.267
B2: the ΔgMFI came to 2000 in [7]; 475 in assay [8]; 457 in assay [12]; 1610 in [13]; 898 in assay [14]; 547 in [15]. Besides, the “FC MFI” value in [9] worked out at 36600; in assay [10], 38700; in [11], 132. Besides, the “% live, FAB-saporin killing assay” value in assay [16] worked out at 15.6%; in assay [17], 27.8%; in assay [18] it was 89%.

B3: SC93.219 (antibody, IgG2b, V domains shown)
VH: EVQLVESGGGLVQPGGSRKLSCAASGFTFSSYGMHWVRQAPEKGLEWVAYISSSGGTIYYADTVKGRFTISRDNAKNTLFLQMTSLRSEDTAMYYCARRGYGNSFDYWGQGTTLTVSS
VL: QIVLTQSPAIMSASPGEKVTMTCSASSSVSYMYWYQQKPGSSPRLLIYDTSNLASGVPVRFSGSGSGTSYSLTISRMEAEDAATYYCQQWSSYPPFGGGTKLEIK
notes: murine, IgG2b
As for B3, the figures for the “FC MFI” value in assay [19], in assay [20] and in assay [21] were 76.2, 85.3 and 87.5, respectively. Further, the “% live, FAB-saporin killing assay” value turned out to be 100% in assay [1], 87.7% in assay [2] and 102% in assay [3].
